# B1: Phospholipid-transporting ATPase accessory subunit CRF1 (Saccharomyces cerevisiae), P53740 (parent)
# chain: MGLILRWKEKKQLSSKQNAQKSRKPANTSFRQQRLKAWQPILSPQSVLPLLILMACVFAPIGIGLVVSTISVQRLVVNYTECDALAPAKHFETIPSEYVDYHFSKKVAVQPQWMVLTDPELGNQTCRIQFEVPNHIKKSTYVYYRLTNFNQNYREYVQSLDLDQLKGKALIGNDLDPNCDPLRTVENKTIFPCGLIANSMFNDTFGTTLTGVNDTADYLLTTKGIAWDTDSHRYGKTEYNASDIVPPPNWAKLFPNGYTDDNIPDLQNWEQFKIWMRTAALPNFYKLAMKNETNGLGKGIYIADIELNYPVRSFYGTKSFVLTTNSIIGAGNEALGIVYLIVAGIATLFAILFLIKVIFKPRPMHDHSYLNFENSDTPFDESSVVSIPLREIL
# Variants of: B1
# Details: with atc8_yeast DNF3, Q12674
# atc8_yeast DNF3, Q12674, sequence (Q12674 whole entry): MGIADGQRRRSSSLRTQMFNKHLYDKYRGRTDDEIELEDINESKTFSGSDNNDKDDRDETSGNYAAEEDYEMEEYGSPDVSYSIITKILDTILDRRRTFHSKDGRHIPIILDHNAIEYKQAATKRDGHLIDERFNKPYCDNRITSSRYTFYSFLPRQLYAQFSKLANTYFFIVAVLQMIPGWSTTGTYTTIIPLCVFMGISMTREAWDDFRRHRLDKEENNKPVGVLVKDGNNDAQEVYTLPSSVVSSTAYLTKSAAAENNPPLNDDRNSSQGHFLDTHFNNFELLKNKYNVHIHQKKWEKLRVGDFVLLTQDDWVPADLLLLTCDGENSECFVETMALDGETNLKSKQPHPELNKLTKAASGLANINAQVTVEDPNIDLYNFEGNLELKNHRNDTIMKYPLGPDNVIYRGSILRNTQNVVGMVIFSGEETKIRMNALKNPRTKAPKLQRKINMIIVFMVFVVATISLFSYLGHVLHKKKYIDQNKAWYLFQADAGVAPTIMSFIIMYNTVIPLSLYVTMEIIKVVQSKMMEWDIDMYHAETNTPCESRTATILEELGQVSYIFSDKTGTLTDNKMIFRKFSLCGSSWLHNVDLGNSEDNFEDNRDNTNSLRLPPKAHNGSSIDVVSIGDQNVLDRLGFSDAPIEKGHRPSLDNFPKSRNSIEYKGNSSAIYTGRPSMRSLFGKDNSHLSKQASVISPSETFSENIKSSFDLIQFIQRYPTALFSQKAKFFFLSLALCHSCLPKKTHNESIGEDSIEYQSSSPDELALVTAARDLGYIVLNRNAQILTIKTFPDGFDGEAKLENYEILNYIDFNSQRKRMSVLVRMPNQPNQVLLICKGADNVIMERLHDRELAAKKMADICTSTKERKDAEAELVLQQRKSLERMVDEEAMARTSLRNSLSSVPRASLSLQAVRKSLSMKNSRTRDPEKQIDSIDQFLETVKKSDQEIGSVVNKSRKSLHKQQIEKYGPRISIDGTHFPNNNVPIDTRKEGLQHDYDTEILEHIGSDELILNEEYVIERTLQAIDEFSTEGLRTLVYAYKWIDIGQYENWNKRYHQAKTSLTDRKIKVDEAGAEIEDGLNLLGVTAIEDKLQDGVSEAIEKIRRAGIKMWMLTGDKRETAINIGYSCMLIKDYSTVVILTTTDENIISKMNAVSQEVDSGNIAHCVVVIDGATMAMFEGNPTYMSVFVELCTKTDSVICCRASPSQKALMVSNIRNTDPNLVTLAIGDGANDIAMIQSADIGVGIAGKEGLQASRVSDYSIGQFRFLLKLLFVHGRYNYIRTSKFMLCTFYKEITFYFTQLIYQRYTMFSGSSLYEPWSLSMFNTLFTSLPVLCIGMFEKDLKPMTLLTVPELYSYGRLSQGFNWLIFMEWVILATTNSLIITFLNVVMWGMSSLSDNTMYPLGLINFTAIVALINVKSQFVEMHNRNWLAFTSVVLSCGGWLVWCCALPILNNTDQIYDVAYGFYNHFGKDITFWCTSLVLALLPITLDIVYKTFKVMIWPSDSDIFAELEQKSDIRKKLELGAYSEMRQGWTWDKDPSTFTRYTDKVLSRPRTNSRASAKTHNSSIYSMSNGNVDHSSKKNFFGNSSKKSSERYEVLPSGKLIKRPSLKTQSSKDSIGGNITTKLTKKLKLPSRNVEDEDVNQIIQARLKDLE
row,effect of a mutation on the interaction,Variant
1,disrupting interaction strength,MGLILRWKEKKQLSSKQNAQKSRKPANTSFRQQRLKAWQPILSPQSVLPLLILMACVFAPIGIGLVVSTISVQRLVVNYTECDALAPAKHFETIPSEYVDYHFSKKVAVQPQWMVLTDPELGNQTARIQFEVPNHIKKSTYVYYRLTNFNQNYREYVQSLDLDQLKGKALIGNDLDPNCDPLRTVENKTIFPCGLIANSMFNDTFGTTLTGVNDTADYLLTTKGIAWDTDSHRYGKTEYNASDIVPPPNWAKLFPNGYTDDNIPDLQNWEQFKIWMRTAALPNFYKLAMKNETNGLGKGIYIADIELNYPVRSFYGTKSFVLTTNSIIGAGNEALGIVYLIVAGIATLFAILFLIKVIFKPRPMHDHSYLNFENSDTPFDESSVVSIPLREIL [C126A]
2,decreasing interaction strength,MGLILRWKEKKQLSSKQNAQKSRKPANTSFRQQRLKAWQPILSPQSVLPLLILMACVFAPIGIGLVVSTISVQRLVVNYTECDALAPAKHFETIPSEYVDYHFSKKVAVQPQWMVLTDPELGNQTCRIQFEVPNHIKKSTYVYYRLTNFNQNYREYVQSLDLDQLKGKALIGNDLDPNADPLRTVENKTIFPCGLIANSMFNDTFGTTLTGVNDTADYLLTTKGIAWDTDSHRYGKTEYNASDIVPPPNWAKLFPNGYTDDNIPDLQNWEQFKIWMRTAALPNFYKLAMKNETNGLGKGIYIADIELNYPVRSFYGTKSFVLTTNSIIGAGNEALGIVYLIVAGIATLFAILFLIKVIFKPRPMHDHSYLNFENSDTPFDESSVVSIPLREIL [C179A]
3,decreasing interaction strength,MGLILRWKEKKQLSSKQNAQKSRKPANTSFRQQRLKAWQPILSPQSVLPLLILMACVFAPIGIGLVVSTISVQRLVVNYTECDALAPAKHFETIPSEYVDYHFSKKVAVQPQWMVLTDPELGNQTCRIQFEVPNHIKKSTYVYYRLTNFNQNYREYVQSLDLDQLKGKALIGNDLDPNCDPLRTVENKTIFPAGLIANSMFNDTFGTTLTGVNDTADYLLTTKGIAWDTDSHRYGKTEYNASDIVPPPNWAKLFPNGYTDDNIPDLQNWEQFKIWMRTAALPNFYKLAMKNETNGLGKGIYIADIELNYPVRSFYGTKSFVLTTNSIIGAGNEALGIVYLIVAGIATLFAILFLIKVIFKPRPMHDHSYLNFENSDTPFDESSVVSIPLREIL [C193A]

# Source: IntAct's records for PubMed 22791719
